{"source": "patent US20220267379A1", "about": "“NOVEL INHIBITORS OF […] AND USES THEREOF” (Ecole Polytechnique Federale de Lausanne (EPFL), priority 2019, published 2022)", "binders": {"B1": {"name": "080 (peptide)", "chain": "PCLYLSCS"}, "B2": {"name": "088 (peptide)", "chain": "PCLYLTCS"}, "B3": {"name": "081 (peptide)", "chain": "QCLYLSCS"}, "B4": {"name": "089 (peptide)", "chain": "PCLYLSCP"}, "B5": {"name": "112 (peptide)", "chain": "PCLYLAQCS"}, "B6": {"name": "012 (peptide)", "chain": "FCLWPWCQPPEACPSQCE"}, "B7": {"name": "008 (peptide)", "chain": "HCRKGLDRCPQCLYRTCS"}, "B8": {"name": "007 (peptide)", "chain": "RCDSSQCMQGQCLYRSCP"}, "B9": {"name": "111 (peptide)", "chain": "PCLYMARCS"}, "B10": {"name": "009 (peptide)", "chain": "QCLYIACPSAAKCDNGCQ"}, "B11": {"name": "109 (peptide)", "chain": "PCLYLAC"}, "B12": {"name": "095 (peptide)", "chain": "PCLYLSRCS"}, "B13": {"name": "003 (peptide)", "chain": "ACTREYNPQCANPQCLCH"}, "B14": {"name": "086 (peptide)", "chain": "PCLYRSCS"}, "B15": {"name": "087 (peptide)", "chain": "PCLYLACS"}, "B16": {"name": "082 (peptide)", "chain": "RCLYLSCS"}, "B17": {"name": "KLK7 inhibitor 278-tag (final KLK7 inhibitor) (peptide)", "peptide 1": "PCLY[Nle]A[hArg]CGKG", "peptide 2": "EYEK(Palmitoyl)EYE", "modifications": "bridge I:2-I:8; not fully specified (some residues, N-terminus, bridges); also: chain 2 (albumin tag) attached via PEG2 to Lys10 side chain of chain 1 (branched)"}}, "key": {"[1]": {"biological_target": "T1, human Kallikrein-related peptidase 7 (hKLK7) (human), P49862", "assay": "enzyme inhibition; pyridine linker", "details": "modification not given"}, "[2]": {"biological_target": "T1, human Kallikrein-related peptidase 7 …", "assay": "enzyme inhibition; ketone linker", "details": "modification not given"}, "[3]": {"biological_target": "T1, human Kallikrein-related peptidase 7 …", "assay": "enzyme inhibition; 1,3-dibromoacetone linker", "details": "modification not given"}, "[4]": {"biological_target": "T1, human Kallikrein-related peptidase 7 …", "assay": "enzyme inhibition; 2,6-bis(bromomethyl)pyridine linker", "details": "modification not given"}, "[5]": {"biological_target": "human Kallikrein-related peptidase 5 (hKLK5) (human), Q9Y337", "sequence (Q9Y337 67-293)": "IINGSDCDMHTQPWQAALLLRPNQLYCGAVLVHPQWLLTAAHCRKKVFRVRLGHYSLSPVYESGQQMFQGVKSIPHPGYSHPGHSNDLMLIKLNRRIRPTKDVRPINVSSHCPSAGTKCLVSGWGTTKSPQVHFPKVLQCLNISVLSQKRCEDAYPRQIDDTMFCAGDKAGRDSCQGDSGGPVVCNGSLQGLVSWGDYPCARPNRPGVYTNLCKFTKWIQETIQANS", "assay": "enzyme inhibition; 2,6-bis(bromomethyl)pyridine linker", "details": "modification not given"}, "[6]": {"biological_target": "human serum albumin (HSA) (human), P02768", "assay": "fluorescence polarization"}, "[7]": {"biological_target": "T1, human Kallikrein-related peptidase 7 …", "assay": "substrate-based activity assay"}}, "note": "Positions of bridges follow the written chain, without caps; N, C: chain ends. Non-standard residues stand in square brackets, D forms with d. Chains are numbered I, II in the order given. No end group written: not given here. *: point of attachment. Palmitoyl = CCCCCCCCCCCCCCCC(=O)*; hArg = N=C(N)NCCCC[C@H](N)C(=O)O; Nle = CCCC[C@H](N)C(=O)O"}
{"binder": "B1", "values": [{"measurement": "Ki", "setting": "[1]", "value": 29.4, "unit": "nM"}]}
{"binder": "B2", "values": [{"measurement": "Ki", "setting": "[1]", "value": 52, "unit": "nM"}]}
{"binder": "B3", "values": [{"measurement": "Ki", "setting": "[1]", "value": 12, "unit": "nM"}]}
{"binder": "B4", "values": [{"measurement": "Ki", "setting": "[1]", "value": 50, "unit": "nM"}]}
{"binder": "B5", "values": [{"measurement": "Ki", "setting": "[2]", "value": 36, "unit": "nM"}]}
{"binder": "B6", "values": [{"measurement": "Ki", "setting": "[3]", "value": "> 1000", "unit": "nM"}]}
{"binder": "B7", "values": [{"measurement": "Ki", "setting": "[4]", "value": 66, "unit": "nM"}]}
{"binder": "B8", "values": [{"measurement": "Ki", "setting": "[4]", "value": 94, "unit": "nM"}]}
{"binder": "B9", "values": [{"measurement": "Ki", "setting": "[2]", "value": 10, "unit": "nM"}]}
{"binder": "B10", "values": [{"measurement": "Ki", "setting": "[4]", "value": 32, "unit": "nM"}]}
{"binder": "B11", "values": [{"measurement": "Ki", "setting": "[1]", "value": 19, "unit": "nM"}]}
{"binder": "B12", "values": [{"measurement": "Ki", "setting": "[2]", "value": 90, "unit": "nM"}]}
{"binder": "B13", "values": [{"measurement": "Ki", "setting": "[5]", "value": 6, "unit": "nM"}]}
{"binder": "B14", "values": [{"measurement": "Ki", "setting": "[1]", "value": 53, "unit": "nM"}]}
{"binder": "B15", "values": [{"measurement": "Ki", "setting": "[1]", "value": 17.5, "unit": "nM"}]}
{"binder": "B16", "values": [{"measurement": "Ki", "setting": "[1]", "value": 8.8, "unit": "nM"}]}
{"binder": "B17", "values": [{"measurement": "Kd", "setting": "[6]", "value": 164, "unit": "nM"}, {"measurement": "Ki", "setting": "[7]", "value": 7.4, "unit": "nM"}]}
